This assay addresses T1, human PD-L1 expressed on the surface of SC-islet cells (human, UniProt Q9NZQ7 19-290).
T1 construct: whole, on cells; also called PD-L1 on B2P SC-islet cells
Put plainly: flow cytometry, labelled PD-1-Fc on dissociated SC-islet cells. For orientation: In flow cytometry, cells or beads pass a laser one at a time.

T1 sequence (Q9NZQ7 19-290): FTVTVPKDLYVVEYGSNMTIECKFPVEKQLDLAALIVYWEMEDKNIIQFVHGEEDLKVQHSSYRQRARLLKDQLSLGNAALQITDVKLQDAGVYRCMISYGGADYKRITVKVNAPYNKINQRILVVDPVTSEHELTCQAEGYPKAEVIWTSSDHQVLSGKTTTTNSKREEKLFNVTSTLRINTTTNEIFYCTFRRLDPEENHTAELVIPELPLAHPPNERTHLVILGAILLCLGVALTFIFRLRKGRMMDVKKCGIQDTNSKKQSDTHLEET

B1: PE-conjugated mouse PD1-Fc (Fc fusion, UniProt Q02242 25-167, looked up)
chain: LEVPNGPWRSLTFYPAWLTVSEGANATFTCSLSNWSEDLMLNWNRLSPSNQTEKQAAFCNGLSQPVQDARFQIIQLPNRHDFHMNILDTRRNDSGIYLCGAISLHPKAKIEESPGAELVVTERILETSTRYPSPSPKPEGRFQ
modifications: PE-conjugated (fluorescently labelled)
notes: It says only 'fluorescently labelled, soluble' PD-1-Fc; also called soluble mouse PD-1-Fc; soluble mouse PD-1; not shown: Fc part
In the case of B1, the binding result was “binds”.

Values taken from US20250177453A1 (Harvard, published 2025).
